From patent US20250339569A1 (3B PHARMACEUTICALS, published 2025)
Starred links: 1 amine or outer side, 2 acyl side, 3 side chain; linkers in the order of their positions; H or OH if unused. Positions of bridges follow the written chain, without caps; N, C: chain ends. Non-standard residues stand in square brackets, D forms with d. Groups on a side chain read outwards from the residue. Primed or numbered codes have the meaning given here. No end group written: not given here. *: point of attachment. Af3(2Py6SaNH) = 3-amino-L-phenylalanine, ring amine acylated by 6-(sulfamoylamino)pyridine-2-carboxylic acid, NS(=O)(=O)Nc1cccc(C(=O)Nc2cccc(C[C@H](N[*:1])C(=O)[*:2])c2)n1; Af3(TzPr) = 3-amino-L-phenylalanine acylated on the ring amine with 3-(1H-1,2,4-triazol-3-yl)propanoic acid, O=C(CCc1nc[nH]n1)Nc1cccc(C[C@H](N[*:1])C(=O)[*:2])c1; Af3(Ac-Glu) = 3-aminophenylalanine acylated on the ring amine with N-acetyl-glutamic acid, CC(=O)N[C@@H](CCC(=O)[*:3])C(=O)Nc1cccc(C[C@H](N[*:1])C(=O)[*:2])c1; Af3(HO-Succinyl) = 3-aminophenylalanine with succinyl (free acid) on the ring amine, O=C(CCC(=O)[*:3])Nc1cccc(C[C@H](N[*:1])C(=O)[*:2])c1; Eem = S-benzyl-cysteine-sulfone, O=C([C@H](CS(=O)(=O)Cc1ccccc1)N[*:1])[*:2]; APAc″ = 2-(4-(amino)piperidin-1-yl)acetic acid, NC1CCN(CC(=O)*)CC1; DOTA = O=C(O)CN1CCN(CC(=O)O)CCN(CC(=O)*)CCN(CC(=O)O)CC1; PPAc = 4-carboxymethyl piperazine linker; mXylylene = c1cc(C[*:1])cc(C[*:2])c1; tBuAla = CC(C)(C)C[C@H](N)C(=O)O; NMeD = CN[C@@H](CC(=O)O)C(=O)O; N4BzlCl = not defined here; hSer = N[C@@H](CCO)C(=O)O; AGLU′ = not defined here; APAc = not defined here; Apr = not defined here; Dap = NC[C@H](N)C(=O)O; AEEA = NCCOCCOCC(=O)O; Nlys = NCCCCNCC(=O)O; Ttds″ = Ttds spacer; Bn = c1ccc(C*)cc1

Assays:
[1] = biological target: T1, Fc-fusion protein of human carbonic anhydrase IX (human, UniProt Q16790 38-414); test: SPR, captured hCAIX-Fc; pKD category A: >8.0
Description: (§1) Stock solutions of test compounds were prepared by dissolving each compound in DMSO. DMSO stock solution were diluted 1:1000 in Running Buffer without DMSO. […] SPR binding analyses were performed in Single Cycle Kinetic (SCK) mode at 25° C.
(§2) For each test compound, SPR raw data in the form of resonance units (RU) were plotted as sensorgrams using the Biacore™ T200 control software. The signal from the blank sensorgram was subtracted from that of the test compound sensorgram (blank corrected). The blank corrected sensorgram was corrected for baseline drift by subtracting the sensorgram of a SCK run without the test compound (running buffer only). […] Raw data and fit results were imported as text files in IDBS. The pKD value (negative decadic logarithm of dissociation constant) was calculated in the IDBS excel template.

[2] = biological target: T1, Fc-fusion protein of human carbonic …; test: SPR, captured hCAIX-Fc; t1/2 category A: >15.0 min
Description: as §1, §2

[3] = biological target: T1, Fc-fusion protein of human carbonic …; test: SPR, captured hCAIX-Fc; t1/2 category B: 5.1-15.0 min
Description: as §1, §2

Row | Binder | pKD [1] [pkd] | t1/2 (half-life of the complex, SPR) [2] [min] | t1/2 (half-life of the complex, SPR) [3] [min]
1 | {DOTA-APAc″}-VYCE[dP]D[Af3(TzPr)]LTWSC-NH2 (linker 3-12 via mXylylene) [3BP-4324] | > 8 | > 15 | 
2 | {DOTA-APAc}-VYCE[dP][NMeD]WLTWSC-NH2 (linker 3-12 via mXylylene; reading uncertain) [3BP-4107] | > 8 | > 15 | 
3 | {DOTA-APAc″}-VECE[dP]DWLTW[Dap]C-NH2 (lactam 2-11; linker 3-12 via mXylylene) [3BP-4175] | > 8 | > 15 | 
4 | {DOTA-APAc″}-VYCE[dP]D[Af3(Ac-Glu)]LTWSC-NH2 (linker 3-12 via mXylylene) [3BP-4361] | > 8 | > 15 | 
5 | {DOTA-Ttds″}-VYCE[dA]DWLTWAC-NH2 (linker 3-12 via mXylylene; not fully specified) [3BP-3279] | > 8 |  | 5.1 to 15
6 | {DOTA-APAc}-VYCE[dP]DWLTWRC-NH2 (linker 3-12 via mXylylene; reading uncertain) [3BP-3599] | > 8 |  | 5.1 to 15
7 | {DOTA-APAc}-VSCE[dP]DWLTWSC-NH2 (linker 3-12 via mXylylene; reading uncertain) [3BP-4105] | > 8 |  | 5.1 to 15
8 | Ac-SYCE[dP]DWLTWE([Apr-DOTA])C-NH2 (linker 3-12 via mXylylene; reading uncertain) [3BP-3873] | > 8 |  | 5.1 to 15
9 | Ac-VRCE[dP]DWLTWE([Apr-AEEA-DOTA])C-NH2 (linker 3-12 via 3MeBn; reading uncertain) [3BP-3734] | > 8 |  | 5.1 to 15
10 | Ac-VYCE[dA]DWLTWAC-NH2 (linker 3-12 via mXylylene; SMILES CC(=O)N[C@H](C(=O)N[C@@H](Cc1ccc(O)cc1)C(=O)N[C@H]1CSCc2cccc(c2)CSC[C@@H](C(N)=O)NC(=O)[C@H](C)NC(=O)[C@H](Cc2c[nH]c3ccccc23)NC(=O)[C@H]([C@@H](C)O)NC(=O)[C@H](CC(C)C)NC(=O)[C@H](Cc2c[nH]c3ccccc23)NC(=O)[C@H](CC(=O)O)NC(=O)[C@@H](C)NC(=O)[C@H](CCC(=O)O)NC1=O)C(C)C) [3BP-3280] | > 8 |  | 5.1 to 15
11 | Ac-VFCE[dP]DWLTWE([Apr-DOTA])C-NH2 (linker 3-12 via mXylylene; reading uncertain) [3BP-3874] | > 8 |  | 5.1 to 15
12 | {DOTA-APAc}-VYCE[dP]C(Bn)WLTWSC-NH2 (linker 3-12 via mXylylene; not fully specified; reading uncertain) [3BP-4128] | > 8 | > 15 | 
13 | {DOTA-APAc}-VYCE[dP]DWLTWEC-NH2 (linker 3-12 via mXylylene; not fully specified (residue 11); reading uncertain) [3BP-4122] | > 8 | > 15 | 
14 | {DOTA-APAc}-VYCQ[dP]DWLTWSC-NH2 (linker 3-12 via mXylylene; reading uncertain) [3BP-4104] | > 8 |  | 5.1 to 15
15 | VYCEGDWLTWQC-NH2 (linker 3-12 via mXylylene; not fully specified (N-terminus); also: indium complexed by DOTA) [3BP-3328] | > 8 |  | 5.1 to 15
16 | Ac-SYCE[dP]DWLTWE([Apr-AEEA-DOTA])C-NH2 (linker 3-12 via 3MeBn; reading uncertain) [3BP-3732] | > 8 |  | 5.1 to 15
17 | {DOTA-APAc″}-VYCE[dP]E(N4BzlCl)WLTWSC-NH2 (linker 3-12 via mXylylene; reading uncertain) [3BP-4334] | > 8 | > 15 | 
18 | {DOTA-APAc}-VYCE[dE](AGLU′)DWLTWSC-NH2 (linker 3-12 via mXylylene; reading uncertain) [3BP-4119] | > 8 |  | 5.1 to 15
19 | {DOTA-APAc}-VE(AGLU′)CE[dP]DWLTWSC-NH2 (linker 3-12 via mXylylene; reading uncertain) [3BP-4112] | > 8 |  | 5.1 to 15
20 | {DOTA-APAc}-VYCE[dP]DWLTWSC-NH2 (linker 3-12 via mXylylene; reading uncertain; also: ['indium complexed by DOTA']) [3BP-3905] | > 8 | > 15 | 
21 | {DOTA-APAc}-VYCE[dP][Eem]WLTWSC-NH2 (linker 3-12 via mXylylene; not fully specified; reading uncertain) [3BP-4123] | > 8 | > 15 | 
22 | VDCE[dP]DWLTW[Dap]C-NH2 (lactam 2-11; linker 3-12 via mXylylene; not fully specified (N-terminus); also: indium complexed by DOTA) [3BP-4337] | > 8 | > 15 | 
23 | {DOTA-APAc″}-VYCE[dP]D[Af3(HO-Succinyl)]LTWSC-NH2 (linker 3-12 via mXylylene) [3BP-4237] | > 8 | > 15 | 
24 | {DOTA-APAc″}-VYCE[dP]DW[tBuAla]TWSC-NH2 (linker 3-12 via mXylylene) [3BP-4142] | > 8 | > 15 | 
25 | Ac-VYCE[Nlys](DOTA)DWLTWAC-NH2 (linker 3-12 via mXylylene) [3BP-3562] | > 8 | > 15 | 
26 | {DOTA-APAc}-VYCE[dP][hSer]WLTWSC-NH2 (linker 3-12 via mXylylene; reading uncertain) [3BP-4102] | > 8 | > 15 | 
27 | {DOTA-PPAc}-QCE[dP]D[Af3(2Py6SaNH)]LTWSC-NH2 (linker 2-11 via mXylylene) [3BP-4514] |  |  | 5.1 to 15
28 | {DOTA}-VDCE[dP]DWLTW[Dap]C-NH2 (lactam 2-11; linker 3-12 via mXylylene; SMILES CC(C)C[C@@H]1NC(=O)[C@H](Cc2c[nH]c3ccccc23)NC(=O)[C@H](CC(=O)O)NC(=O)[C@H]2CCCN2C(=O)[C@H](CCC(=O)O)NC(=O)[C@@H]2CSCc3cccc(c3)CSC[C@@H](C(N)=O)NC(=O)[C@H](CNC(=O)C[C@H](NC(=O)[C@@H](NC(=O)CN3CCN(CC(=O)O)CCN(CC(=O)O)CCN(CC(=O)O)CC3)C(C)C)C(=O)N2)NC(=O)[C@H](Cc2c[nH]c3ccccc23)NC(=O)[C@H]([C@@H](C)O)NC1=O) [3BP-4264] | > 8 | > 15 | 
